These are literature values, as cited in PMC5828189.

The data set deals with C1q globular head (gC1q) (Homo sapiens) (UniProt P02745).
Sequence of UniProt P02745 (P02745 23-245, chain 1 of 3): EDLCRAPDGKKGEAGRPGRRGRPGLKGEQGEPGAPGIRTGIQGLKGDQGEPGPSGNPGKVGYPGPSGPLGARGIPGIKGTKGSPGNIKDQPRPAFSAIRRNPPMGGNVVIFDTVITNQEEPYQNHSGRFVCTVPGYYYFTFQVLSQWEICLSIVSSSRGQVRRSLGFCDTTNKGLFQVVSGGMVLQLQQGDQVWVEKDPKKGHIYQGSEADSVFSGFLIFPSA
Sequence of UniProt P02745 (P02746 28-253, chain 2 of 3, further chain): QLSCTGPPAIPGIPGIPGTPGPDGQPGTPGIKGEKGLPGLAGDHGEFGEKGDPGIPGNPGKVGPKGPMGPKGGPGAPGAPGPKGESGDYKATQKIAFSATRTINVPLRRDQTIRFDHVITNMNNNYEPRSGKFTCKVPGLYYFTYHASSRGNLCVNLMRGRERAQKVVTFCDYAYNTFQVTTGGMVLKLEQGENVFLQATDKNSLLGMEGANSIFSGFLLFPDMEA
Sequence of UniProt P02745 (P02747 29-245, chain 3 of 3, further chain): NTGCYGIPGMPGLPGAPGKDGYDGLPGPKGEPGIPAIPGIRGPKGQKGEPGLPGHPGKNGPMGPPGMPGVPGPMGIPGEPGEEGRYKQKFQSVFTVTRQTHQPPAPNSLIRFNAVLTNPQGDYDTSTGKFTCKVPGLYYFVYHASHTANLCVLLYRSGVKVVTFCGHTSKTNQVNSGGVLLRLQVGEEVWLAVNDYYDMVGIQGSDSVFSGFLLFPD

As a reminder, the Kd is the free concentration of one partner at which half of the binding sites on the other are occupied at equilibrium, for simple one-to-one binding. As to HABP1/p32/gC1qR (from UniProt Q07021), the Kd was 75 nM.
